Measurements reported in paper PMC6438714.

Target: DyLight488-METTL14 (UniProt Q9HCE5)
Assay: MST

Sequence of UniProt Q9HCE5 (Q9HCE5 whole entry): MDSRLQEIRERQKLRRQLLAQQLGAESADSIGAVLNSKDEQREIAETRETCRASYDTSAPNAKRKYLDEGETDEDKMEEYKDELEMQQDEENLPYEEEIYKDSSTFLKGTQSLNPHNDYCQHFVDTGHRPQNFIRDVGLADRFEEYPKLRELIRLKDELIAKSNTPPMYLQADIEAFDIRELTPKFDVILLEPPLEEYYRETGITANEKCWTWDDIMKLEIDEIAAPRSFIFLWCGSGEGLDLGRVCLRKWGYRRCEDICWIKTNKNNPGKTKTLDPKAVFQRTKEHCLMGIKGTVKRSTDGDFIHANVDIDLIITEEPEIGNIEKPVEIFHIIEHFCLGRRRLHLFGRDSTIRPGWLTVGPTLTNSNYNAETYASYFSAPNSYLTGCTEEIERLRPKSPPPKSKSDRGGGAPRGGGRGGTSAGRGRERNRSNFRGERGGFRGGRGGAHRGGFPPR

Substance: full length H3K36me3 (from UniProt P68431 1-136) (natural protein)
- Kd: 1860 nM
